From the domain aggregation screens of Martell et al. (2025)

Test: soluble fraction after stress (log2 fold change); higher = more stays soluble; pooled small domains, quantitative proteomics
Conditions: stress: pH 4
Summary of the method: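 Aggregation propensity is estimated from the fold change in each domain's soluble amount after acid stress. Pooled small-domain libraries were stressed at pH 4, and higher log2 values mean more stayed soluble.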

| Sequence | soluble fraction (log2) |
| --- | --- |
| HMSGEVLTAVVPETASGERLDKVLPQIFPPYSRSQLQTWLKEGRVTLDREIPAARLAVIGGETLRLEVPSL | -0.0494 |
| HMSGFFVYPNPAKSNIIHFPNKKSFYIYDTSGRLLIEGKGKDFIDVSTLDRGVYLLKTFENDIVKIII | -0.585 |
| HMSGGIVRLAVKPWGEVFVDGASRGITPPLKQLTLDAGVHRIEIRNPAGPSWTKDVDVVAGQPTTVSHRF | 0.0131 |
| HMSGITDIITDGKATSRPVVVTDGGHIRVLSPYTSFAIYTLGGMSLPTESRLEPGIYIVVVDSNAVKVAV | -0.408 |
| HMSGLGELTPRELEVLELMAQGLSNSQIAGRLFLSGAAVAKHVSSIFSKLGFEPGDENRRVRAILAFLNR | -0.751 |
| HMSGLLTTSKLAQKHKMKTEPMLEKLTAAGYLEWRDDKHSLTEQGKKAGGQFKTGRFGAYFLWPEDLV | 0.116 |
| HMSGPDGLTEREIEVLRLLASGLSNRAIGERLYISTNTAANHVRSILLKTGAANRTQAAMYAADHEML | 0.0798 |
| HMSGPFTELTPREREILSHLAEGQSNKVIARHLQISDGTVKLHVKAILRKLEVHSRVEAAVMAVEHGV | 0.0256 |
| HMSGPMVPNVVGLSEEMARALLSDYSITIKHAHDGVIPKDRVASQLPLATTHAKVGSSVVLTIS | 0.238 |
| HMSGQLTEEQVKQIVTTAVKNSSGSTLTAAEVSRIVSTAVANNLTADQVKTVVNNALAGITTDISTLKA | 0.202 |
| HMSGSFDVTLDYLNSLRNLYPAIDVEQEFRKMYAWLDSNPKNRKTERGIKRFITGWLGRAQDKAP | -0.9 |
| HMSGSLLQTRQRLQALTDLGHYKGDLAAAWGPEAIEALKRAQAALGITVDGKWGPETEDAIQVALQAQT | -0.133 |
| HMSGSPREQAESEYRKAIAAVNQGRVSEATESLRAALRLDAFQVAARQLLVKLLLEAKNQDEAIQVLR | -0.489 |
| HMSGTMYATAEVNVRSTYSSDGTIYGTLSKGTAVEITGTTDNGWVRVKYNGTTAYVYADYLSWKAP | 0.144 |
| HMSGYAIVNNQPGRTLNLRNSPSQSNNIIGQIPSGTRLQLISRGETWSEVIFQTTRGFVMSSFLRFET | -0.17 |
| HMSHGNAALTPRQRLRLARLVVDDQWSVSAAAEFFRVSYPTAAKWARRYVELGPAGMADRSS | -0.0854 |
| HMSHRVGDVVELTAVRMNDQGVFLDAGTGNTSDDILLHKHQMTSPVSVGDKVKVQLYLDAKNRITASMKL | -0.199 |
| HMSIEIIEITSNSSPKNLSEIIDIDATQIVADLMGLGIMKAIDTPLENSEIEQLLEKYNLIAEFVE | -2.51 |
| HMSILEIFGRNVQKYRKEQRLSQEKLAEYAGLHRTYIGMIERAEKNITLVNIEKIAKALNINLTKLLE | 0.0741 |
| HMSILTELDIGDKVEVVAGPFKGIQANITRIEPVRKEVTVILLDAPYQLPVTVDADYLKIIQKS | -0.0376 |
| HMSINISFEPADHLGKDVIFIRFPYDNEWIQRVRKLKGAKWSQSQRAWHVPDTEHYRTLFQLPQKI | -0.704 |
| HMSIQDLMNSKDLSGFKVEMLSNEDIVKYKSMLQSSGFSESQAEQLALQRGLPTSELIKLRTRISDVAVT | 0.17 |
| HMSIQELMNSKDLSSFKVEMLSDEDIAKYKGLLQNSGLTEAQAEQMALQRGLPSSELLKLKARLSGI | 0.0846 |
| HMSIQREIILEVIKNNRTHPTAEEIYILVTKKEPKISRSTVYRNINILVEKGIIEKITIATGPDRYDY | -0.126 |
| HMSISDEDFAKLLDFVKEKWDAGELDNAEDIKAAISEGEKEFGVSLDESTRTTLASALQQLN | -0.496 |

| Sequence | soluble fraction (log2) |
| --- | --- |
| HMSIYDAPIEDLKFSTRIFNSLKRADIHTVADLIAHSRDDLMKVRNLGATSLDELIEKLGTHGLQLADP | -0.356 |
| HMSIYYQIYESLKKDLSNNLYKPGEKLPSENVLSKRFGVNRHTIRRSLQLLKNEGILFSKRGSGIIVHD | 0.359 |
| HMSKDKEKRTREHVLGILKKYDKVMTDKAFTVFKKMIKDESILEMELIKLINFIGERKEIRSKDVLAVVTE | -0.329 |
| HMSKEIQNILASLPSVDVLLKQIDPIYPHGKAKEATQQVVARLRESVVDGTRKTVIDQKEVIAMIHKQLEE | -0.149 |
| HMSKETTYEVLSLKGDEWQTDTIYSDRDEAIEAARNLHGDPHIDGAKVISEVYDDKTGGSKETTIFNT | -0.21 |
| HMSKHAIQNELEKIEGIGKQTADSLLKEFKSVKKLRTLPLSEIEKVIGKSKATIVFEALHKDK | 0.0949 |
| HMSKHATLLEALADLSVKLKPHSQLPSERALSEEYGVSRMTLRRAIDVLQARGYIYSVPSKGLFVSEP | -0.0584 |
| HMSKHATLLEALAELTVKLKPHTQLPSERQLSEDFGVSRMTLRRAIDVMQSRGYIYTVPSKGLYVSEP | -0.156 |
| HMSKIRTFRVKTVAVDQAYQVLKDYSPIKISTESNAVIIDLDESKTPAEIAGYLEKNGIKVDNIEVIAESE | -0.148 |
| HMSKISKENEQQVIQIVQTLLLNVQDKSLITTQILNEKINLAVSLDTKYKENLDRDYIIEELIRRYSVW | -2.54 |
| HMSKKIVLPAAITVKKFSETLDMPLGTVISELMKNGILATINERIDFETASIIAQDLGYEVSEEV | 0.0626 |
| HMSKKQEQALQSREKLLDAATALFAEHGYRDTSVQAIGEKAGVSRGSIFWHFGSKEGLLWAVVERAFTA | 0.346 |
| HMSKKTQKDEVVDLFLKTGNEPLHYKEISKKTGIIVHNVRRITGQNVVGKTDNPVFKRVSPGVYKLID | -0.0395 |
| HMSKLSVSSLSSPEVQNQLKAAGIDVNSRQYQVVMKDMMGALDGRAGYTTVSAIKNRMRQYNADGDY | 0.19 |
| HMSKMVEMSQEKSREKVARVKIEIQKMLDRKERVTVSGLERATGFSNSFFYRNEEVNQAVKEAQLKQ | 0.0693 |
| HMSKNIRQQFLDVLPKTFDRNQYLETAKKLSINAKTAEGYIKKFVEANLLDHPKHNHYINLKKVEEVETK | -0.0789 |
| HMSKNYYEILGVTPDVELSQLKAVYRRLVRKYHPDINPDGELIFKDITEAYEVLSDEKQRKQYDMINGF | -0.362 |
| HMSKPILSFVDPEKDPSHYVKRYITEETYKDWFSEHFPDYTLYEGIGITQEEYRNIVNELTKP | -1.7 |
| HMSKPIYSELLREIRSGDVKELTLIPQRREVLVEYSDGRKATVSILANDQQVLRTAESAGVPLTVK | 0.116 |
| HMSKPVFQTHSVRSADSATVFDVLQTLLAGTPDARIAIDPKTNAIVAWARPETQEVIAKSIMEMEG | -0.418 |
| HMSKQIEVPDVTDMTVSDAIDVLQDKGFVVSDEQKEVASSEIEEGRVVRTSPAVGSKRKDGTVVTLYVSI | -0.479 |
| HMSKTEEIAYTTFVKYLENKDIEEVYLGNNAKIKVILKDGREMITDNPRTADFKKDLLLHDIKVVEKT | ≥ 0.43 |
| HMSKYGIAYSEVLEILKHIPIEDYNKIPRNEIELFETYADKDFTFNYDSSKTLEEQNVSNITKGIIIL | -0.465 |
| HMSLEEQNGAKDRQVEAYELLLKAQRALDQEDTAGFQAAMKDLEPLSSQLDAQGQTLYHELLPFVS | -0.246 |
| HMSLGSNISRLRAEKHLSQGDLAEALDVSRQSVSKWETDGSVPDLDKLVKLSRIFGVTLDELVTGTP | 0.0988 |

| Sequence | soluble fraction (log2) |
| --- | --- |
| HMSLIHEQSLKEIRIFINNLPESLRTAFTLREQDGLSYEEISKITDTPIGTVRSRIFRARESILEHINEEL | -0.599 |
| HMSLLTPLEEARIVIEELIIPQKLTLDLLPQNSQIRKLQHEIINHYRLKGISIGDGKNRRVRIYS | -1.48 |
| HMSLMHEESLKNIRRFINSLPESLRTAFTLREQDGLSYEEIGVITETPIGTVRSRIFRAREAILEHIKKEL | -0.445 |
| HMSLMLYVEDVDTAFKKAIELGATEIRPVHDQFYGDRAGTLQDPFGHIWIIGTHKEDVSDEELNNRIGNI | -0.332 |
| HMSLPNNLIEQLQDPEPKARRRAVRRLAATRDPSAIPLLRNVYLQDGDDRVRDAAEAALVQFRAMQHN | 0.104 |
| HMSLPTYVQISEAIARRITAGQWLDGERLPPERTMAAEFGVAVGTLRKALSRLQDQKLLRRLQGSGNYINI | -0.264 |
| HMSLREKNKARTRTAILNAARDLAKQGQWDAITTRQIADAAGVSYQTLYNYYPSKASILVEMLL | -0.219 |
| HMSLSDDIAQTLRQLGFDRDVSETLANDVLPAMPTRQDVIDLLGTLGIEKHVAADFANFVVLN | -1.08 |
| HMSLSEYLSAPVLEGQRNHALFSAVMQAREQGWDEWQIRTTIGAKAEADGLRHAEIAATIRSAMSREITP | -0.0425 |
| HMSLSIKINHESVGLRLDQFLQEHYYKQQSRSYVQHAIKEGYILVNGQSVKNGYMLKLDDLIELEAI | -0.166 |
| HMSLSNMIGKNIQWTHVTKTKDAEGNPKTNSETFAGNVRGVKVLNGKPMVVAQDAKGKLHEVEVSEIEAIA | 0.22 |
| HMSLTEDELFHALTIYANREGINIGATELKYLLTHYARNLGKLIELINQVSQAATMQKKPITIPLIKHS | -0.251 |
| HMSLTGFYNLTFKQADRLSVIDEAGEEVYKQAIAMGSTTKTIDLSALNAGVYFIRIYNGEVIAQEKIVLN | -0.958 |
| HMSLTYTGKFILNHNNIDQSSFNINIYLVNKQTIIQITKPFYGNVLNIKFNEENDLIISPKQFS | -0.9 |
| HMSMDPYTVLGVNKSSTDSQIKNAYKNLAKQHHPDRGGNEAKFKEISTAYEQIKTAEKRQQYDMSQQF | 0.389 |
| HMSMFAQQLKDLRKKIPGLTQTDMAKKLGIAKTTYASYEQGKRTPDIETQNKIADFFNVSLDYLHG | 0.22 |
| HMSMFSEILRTLRKAKGLTQRELAGHLGVTQQMVAKWEKGQSTPGPDQLTRMAELLEVSTDTLLGR | -0.104 |
| HMSMNSWFVEKERDNTRIDKFLNEQMADISRSYIQKLIKDDLVTVDLRPVKANYKVKEGDRVEVTLPEPV | -0.0679 |
| HMSMPTITLQHYKRGSHYYASIIETFRDPVTRKNSSRTLEALGDISEKMKEDPNYLQSLKDRVKALRSD | 0.156 |
| HMSMSLQFLSRRIRLQREKRGLKQHDIAHALQISPQAVSKWERGENAPDIALLRPLAGLLGVSIDWLMGGD | -1.7 |
| HMSNEEEIEGLVSKVLDNNPEIVERIRSGEDKLISYLVGEVMKQSSSSLNPGIVKEIIVNKTI | -0.154 |
| HMSNEITVPDLSGMSLEELETILSDRSLSYEIIDSIYNSTAKKGTVSSQDPLPDAKVKSGRTIYITVVSKL | -1.31 |
| HMSNENIDQDELQAIIQKVLASNQDAVAKYKAGKTAVIGFLIGQVMRQLNKKIDVALAKKTLLVFLEK | 0.0782 |
| HMSNETKSAILNFAEKHHDFNIDDLFESLSKSMDINRSSLLWHLFKLVNSNVLIRTGRGMYAKV | -0.839 |
| HMSNEVSYSDFVRSVESDEVNAVTLDGEQIRFVGNDGQTYSVIKPADAQITQLLIDNNVTVRAEQQ | -0.0566 |
